# Laboratory results from patent publication US20240209094A1 (PIERRE FABRE MEDICAMENT, published 2024).
# Values joined by “and” are separate entries in the source; they are usually repeats but may differ in a detail not shown here. Equal values may be shown once.
# T1: hVISTA-Fc labelled with d2 (human, UniProt Q9H7M9 33-194, labelled with d2 (HTRF acceptor); site not stated)
# T1 construct: It may be the same protein as rhVISTA-Fc of the Biacore assay, with a d2 label; also called VISTA-Fc-d2; not shown: Fc
# T1 sequence: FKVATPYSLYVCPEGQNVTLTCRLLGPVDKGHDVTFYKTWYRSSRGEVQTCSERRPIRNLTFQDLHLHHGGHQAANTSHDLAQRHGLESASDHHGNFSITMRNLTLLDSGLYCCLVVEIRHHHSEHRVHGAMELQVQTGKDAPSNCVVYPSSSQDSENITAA
# T2: recombinant human (rh) VISTA-His protein (human, UniProt Q9H7M9 33-194)
# T2 construct: A soluble His-tagged protein is probably the extracellular domain; also called rhVISTA-TagHis; rhVISTA-his (monomer); not shown: His tag
# T2 sequence: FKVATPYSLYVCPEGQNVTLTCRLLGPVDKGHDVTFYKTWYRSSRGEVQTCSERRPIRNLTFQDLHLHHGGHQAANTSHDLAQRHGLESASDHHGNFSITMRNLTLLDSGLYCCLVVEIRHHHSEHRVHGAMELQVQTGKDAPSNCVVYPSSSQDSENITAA
# Experiments:
# [1] = biological target: T1, hVISTA-Fc labelled with d2; assay: HTRF, VISTA-Fc-d2 and PSGL1-His/anti-His-Tb, pH 6; antibody at 0.16 µg/mL; mean of 3 experiments
# [2] = biological target: T1, hVISTA-Fc labelled with d2; assay: HTRF, VISTA-Fc-d2 and PSGL1-His/anti-His-Tb, pH 6; antibody at 1.25 µg/mL; mean of 3 experiments
# [3] = biological target: T1, hVISTA-Fc labelled with d2; assay: HTRF, VISTA-Fc-d2 and PSGL1-His/anti-His-Tb, pH 6; antibody at 0.63 µg/mL; mean of 3 experiments
# [4] = biological target: T1, hVISTA-Fc labelled with d2; assay: HTRF competition, VISTA-Fc-d2 and PSGL1-His/anti-His-Tb, pH 6
# [5] = biological target: T1, hVISTA-Fc labelled with d2; assay: HTRF, VISTA-Fc-d2 and PSGL1-His/anti-His-Tb, pH 6; antibody at 5 µg/mL; mean of 3 experiments
# [6] = biological target: T1, hVISTA-Fc labelled with d2; assay: HTRF, VISTA-Fc-d2 and PSGL1-His/anti-His-Tb, pH 6; antibody at 0.31 µg/mL; mean of 3 experiments
# [7] = biological target: T1, hVISTA-Fc labelled with d2; assay: HTRF, VISTA-Fc-d2 and PSGL1-His/anti-His-Tb, pH 6; antibody at 10 µg/mL; mean of 3 experiments
# [8] = biological target: T1, hVISTA-Fc labelled with d2; assay: HTRF, VISTA-Fc-d2 and PSGL1-His/anti-His-Tb, pH 6; antibody at 2.5 µg/mL; mean of 3 experiments
# [9] = biological target: T2, recombinant human (rh) VISTA-His protein; assay: direct ELISA, rhVISTA-His coated on plate; experiment n3
# Protocol: (§1) After incubation, the coating solution was removed and plates were blocked by adding 250 μl blocking buffer (0.5% gelatin in 1×PBS) for at least 1 hour at 37° C.
# [10] = biological target: T2, recombinant human (rh) VISTA-His protein; assay: direct ELISA, rhVISTA-His coated on plate; Mean EC50 'Prism' n = 3
# Protocol: as §1
# [11] = biological target: T2, recombinant human (rh) VISTA-His protein; assay: direct ELISA, rhVISTA-His coated on plate; experiment n2
# Protocol: as §1
# [12] = biological target: T2, recombinant human (rh) VISTA-His protein; assay: indirect ELISA, rhVISTA-His captured by coated anti-His antibody; Mean EC50 'Prism' n = 3
# Protocol: as §1
# [13] = biological target: T2, recombinant human (rh) VISTA-His protein; assay: indirect ELISA, rhVISTA-His captured by coated anti-His antibody; experiment n2
# Protocol: as §1
# [14] = biological target: T2, recombinant human (rh) VISTA-His protein; assay: indirect ELISA, rhVISTA-His captured by coated anti-His antibody; mean EC50 of n1-n3
# Protocol: as §1
# [15] = biological target: T2, recombinant human (rh) VISTA-His protein; assay: direct ELISA, rhVISTA-His coated on plate; experiment n1
# Protocol: as §1
# [16] = biological target: T2, recombinant human (rh) VISTA-His protein; assay: direct ELISA, rhVISTA-His coated on plate; mean EC50 of n1-n3
# Protocol: as §1
# [17] = biological target: T2, recombinant human (rh) VISTA-His protein; assay: indirect ELISA, rhVISTA-His captured by coated anti-His antibody; experiment n1
# Protocol: as §1
# [18] = biological target: T2, recombinant human (rh) VISTA-His protein; assay: indirect ELISA, rhVISTA-His captured by coated anti-His antibody; experiment n3
# Protocol: as §1
percentage of the specific HTRF signal [1],percentage of the specific HTRF signal [2],percentage of the specific HTRF signal [3],IC50 [4],percentage of the specific HTRF signal [5],percentage of the specific HTRF signal [6],percentage of the specific HTRF signal [7],percentage of the specific HTRF signal [8],EC50 [9],EC50 [10],EC50 [11],EC50 [12],EC50 [13],EC50 [14],EC50 [15],EC50 [16],EC50 [17],EC50 [18],Molecule
89%,68%,81%,333000 pM,50%,88%,34%,63%,,,,,,,,,,,anti-VISTA R&D Systems #71261 (antibody)
,,,2300 pM,,,,,928 pM,1020 pM,1080 pM,47.1 pM,44.7 pM,47.1 pM,1040 pM,1020 pM,50.1 pM,46.5 pM,"anti-VISTA antibody Ab1 (N55D substitution in the CDR-H2) (antibody, human IgG1, kappa, V domains shown, N-terminal glutamine mainly in the pyroglutamic acid form; N-glycan at Asn298; most of the C-terminal lysines clipped, also called anti-VISTA Ab1) VH: QVQLVQSGAEVKKPGASVKISCKASGFSFTGYTMNWVRQAPGQGLEWIGLISPYDGGTSYAQKFQGRATLTVDTSTSTAYMELSSLRSEDTAVYYCARRAYGYAMDYWGQGTLVTVSS VL: EIVLTQSPATLSLSPGERVTMSCSASSSVSYMYWYQQKPGQAPRLLIYDTSNLASGVPARFSGSGSGTDYTLTISSMEPEDFAVYYCQQWSSYPFTFGQGTKLEIKR"
,,,,,,,,645 pM and 901 pM,959 pM and 671 pM,728 pM and 877 pM,39.3 pM,34.2 pM and 41.8 pM,39.6 pM and 39.3 pM,641 pM and 1100 pM,671 pM and 961 pM,45.8 pM and 38.2 pM,38.6 pM and 38 pM,"monoclonal antibody Ab3 (unmutated antibody) (antibody, human IgG1, kappa, V domains shown, partly deamidated at N55 (mixture of N55/N55, N55/D55 and D55/D55 charge variants), The batch is kept in the printed label of each row; also called Ab 3 batch 1; Ab 3 batch 2) VH: QVQLVQSGAEVKKPGASVKISCKASGFSFTGYTMNWVRQAPGQGLEWIGLISPYNGGTSYAQKFQGRATLTVDTSTSTAYMELSSLRSEDTAVYYCARRAYGYAMDYWGQGTLVTVSS VL: EIVLTQSPATLSLSPGERVTMSCSASSSVSYMYWYQQKPGQAPRLLIYDTSNLASGVPARFSGSGSGTDYTLTISSMEPEDFAVYYCQQWSSYPFTFGQGTKLEIKR"
